Test results: US6822073B2, “Modular peptide-based reagent” (Kimberly-Clark Worldwide, Inc., priority 2001, dated 2004)
Blank lines part the entries; values can stand above or below the sequence they belong to.

How the values were obtained:
[1] = target: T1, bovine pancreatic trypsin (Bos taurus, UniProt P00760); assay: Surface plasmon resonance (BiaCore-X), trypsin flowed over immobilized peptide; assay type: binding; settings: peptide coupled to CM-5 chip by thiol, trypsin 1 to 100 nM in PBS, FIG. 12
T1 sequence (P00760 24-246): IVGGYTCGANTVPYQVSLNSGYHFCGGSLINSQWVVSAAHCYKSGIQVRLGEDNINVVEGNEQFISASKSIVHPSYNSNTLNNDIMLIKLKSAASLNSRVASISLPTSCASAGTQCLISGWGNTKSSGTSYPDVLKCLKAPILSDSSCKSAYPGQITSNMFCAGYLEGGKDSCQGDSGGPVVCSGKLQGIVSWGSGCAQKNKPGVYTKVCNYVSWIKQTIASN
Experimental: The BiaCore, Inc. BiaCore-X surface plasmon resonance (SPR) device was utilized to measure the interaction between bovine pancreatic trypsin and SAP-1 or SAP-2. For these experiments a carboxymethyl dextran sensor chip (CM-5) was activated with 50 mM N-hydroxysuccinimide, 0.2 M N-ethyl-N′-(dimethylaminopropyl)-carbodiimide at a flow rate of 10 μL per minute for ten minutes. The thiol coupling agent PDEA (2-(2-pyridinyldithio)ethaneamine hydrochloride) at a concentration of 80 mM was passed over the activated surface at a flow rate of 10 μL per minute for five minutes. SAP-1 or SAP-2 at a concentration of 50 ng/μL was coupled to the activated surface at a flow rate of 10 μL per minute for ten minutes. The final surface was inactivated by flowing 50 mM 1-cysteine, 1 M NaCl at a rate of 10 μL per minute for five minutes over the sensor surface. Buffer was switched to phosphate buffered saline (PBS) and bovine pancreatic trypsin was flowed over the sensor surface at a rate of 20 μL per minute, and at concentrations that ranged from 1 to 100 nM.
For this reaction of the type, A+B⇄AB, where A is the free flowing ligand and B is the immobilized ligand, the change in the SPR signal (R) is proportional to formation (for the association phase) or to the dissociation (for the dissociation phase) of the complex AB.
for the association phase. Rmax is the measured response if all of the binding sites in the bound species were occupied, c is the ligand concentration, and Rb is the shift in the baseline signal upon ligand injection. The dissociation phase is evaluated by:
where R0 is the SPR signal at the start of dissociation. A FFT routine separately smoothed the association and dissociation portions of the binding isotherm. Final kinetic analysis (O'Shannessy et al., 1993) was performed using Origin from Microcal, Inc.

[2] = target: T1, bovine pancreatic trypsin; assay: Isothermal titration calorimetry (ITC) of binding to bovine pancreatic trypsin; settings: for Stoichiometry / Ka (association constant) / ΔH / ΔS: ITC; for Binding to trypsin by ITC (in words): all experimental conditions, FIGS. 6 and 7
Experimental: Isothermal titration calorimetry (ITC) was performed with a VP-ITC instrument from MicroCal, inc. Titrations were carried out by injecting 5 μL of an inhibitor solution (at concentration ranges from 0.5 mM to 2.0 mM) into the 1.4 mL stirred reaction cell. APP and APP derivatives ranged in concentration from 50 to 80 μM in the cell. […] Titrations were conducted between 20° C. and 40° C. Typical experimental conditions for the titrations were a 10 second injection period followed by a 240 second delay between injections for a total of 40 injections. Blank titrations of inhibitor into buffer were performed in order to correct for heats of dilution and mixing.
The independent set of multiple binding sites is the most common model for binding experiment evaluations. The analytical solution for the total heat is determined by (Freire et al., 1990): [formula]
where Q is the total heat, V is the cell volume, ΔH is the enthalpy, M is the macromolecule concentration (the binding partner in the cell), n is the binding stoichiometry, L is the ligand concentration (the binding partner in the syringe), and K is the association constant. Data were fit to this model using Origin version 5 (MicroCal, Inc.).
The association constant is related to the van't Hoff enthalpy according to the following relationship: [formula]
The free energy of binding is related to the binding enthalpy by:
or with the incorporation of heat capacity data according to the Gibbs-Helmholtz equation: [formula]
where ΔG is the Gibbs free energy of binding, T0 is the reference temperature, and ΔCp is the heat capacity. The value of ΔCp is calculated from determining the calorimetric enthalpy at two different temperatures: [formula]
By measuring the apparent enthalpy of binding in two different buffers of known enthalpy of ionization, it is possible to measure the net number of protons transferred during the binding events:
where ΔHcor is the actual heat of binding at the pH measured. The sign indicates the direction of proton transfer.

[3] = Chemical denaturation: unfolding in urea by intrinsic tryptophan fluorescence; assay type: physicochemical; settings: for m1/2 value of unfolding: 20 μM protein; for m1/2 value of unfolding / Native free energy (ΔG in absence of denaturant): room temperature; for Native free energy (ΔG in absence of denaturant): extrapolated to zero urea
Experimental: Stability measurements of the protein were performed by measuring protein unfolding in the presence of urea via intrinsic tryptophan fluorescence (Lakowicz, 1983) in a Shimadzu RF5301 fluorometer. The excitation and emission wavelengths were 295 nm and 340 nm respectively. Both excitation and emission monochrometer slits were set at 1.5 nm. Protein (20 μM) was mixed with increasing amounts of urea (in the concentration range of zero to 6.8 M), and the samples were incubated at room temperature for ten hours to ensure that unfolding equilibrium had been achieved. Relative fluorescence was converted into free energy values according to the relation (Pace et al., 1989): [formula]
where yf and yu are the relative fluorescence values for fully folded and fully unfolded DST respectively, yi is the relative fluorescence of the unfolding intermediates, T is the absolute temperature, and R is the gas constant. Linear regression and extrapolation of the relationship ΔG versus [urea] was employed to determine the free energy value in the absence of denaturant (ΔGH2O). Similarly, the fraction unfolded protein (Fu) was calculated from the fluorescence data according to the relation (Pace et al., 1989): [formula]

Kinetic rate constant ka (association) [1]: 1.3×10^5 | Kinetic rate constant kd (dissociation) [1]: 1.7×10^−2 | Stoichiometry ([2]; 293 K (20° C.), 20 mM cacodylate pH 7.0, 20 mM NaCl, FIG. 7): 0.975 +/− 0.02 | Ka (association constant) ([2]; 293 K, FIG. 7): 1.65e+06 ± 45000 M⁻¹ | ΔH ([2]; 293 K, FIG. 7): -26.1 ± 1.45 kcal/mol | ΔS ([2]; 293 K, FIG. 7): −11.6 +/− 2.2 cal mol^−1 K^−1 | Ka (association constant) ([2]; 303 K): 2.4e+06 ± 37000 M⁻¹ | ΔH ([2]; 303 K): -15.4 ± 2.05 kcal/mol | ΔS ([2]; 303 K): −21.1 +/− 1.8 cal mol^−1 K^−1 | Stoichiometry ([2]; higher temperature, 303 K): 0.99 +/− 0.03 | ΔCp (heat capacity of binding) ([2]; from calorimetric enthalpy at 293 K and 303 K): −0.51 kcal/mol K
Sequence: CPSQPTYPGDPPYRIRFGPVEDLIRFYDNLQQWLN CVTAAC (CPSQPTYPGDPPYRIRFGPVEDLIRFYDNLQQWLNCVTAAC; A peptide-based reagent that combines the SEQ ID NO15 interactive domain with the SEQ ID NO11 peptide backbone.) [SAP-1]
Binding to trypsin by ITC (in words) [2]: remarkable binding specificity for trypsin | Stabilization of the native state relative to SAP [3]: 2.0 kcal/mol | m1/2 value of unfolding [3]: 4.0 M urea | Native free energy (ΔG in absence of denaturant) [3]: -5.1 kcal/mol

Kinetic rate constant ka (association) [1]: 8.2×10^4 | Kinetic rate constant kd (dissociation) [1]: 6.9×10^−2 | Stoichiometry ([2]; 25° C., 20 mM cacodylate pH 7.0, FIG. 8): 0.995 +/− 0.06 | Ka (association constant) ([2]; 25° C., FIG. 8): 640000 ± 5300 M⁻¹ | ΔH ([2]; 25° C., FIG. 8): -31.2 ± 2.30 kcal/mol | ΔS ([2]; 25° C., FIG. 8): −16.2 +/− 1.22 cal mol^−1 K^−1 | Binding affinity compared with the peptide having SEQ ID NO:21 (in words) ([2]; bovine pancreatic trypsin): slightly lower binding affinity
Sequence: CPSQPTYPGDPYKLKY GPVEDLIRFYDNLQQWLNCVTAAC (CPSQPTYPGDPYKLKYGPVEDLIRFYDNLQQWLNCVTAAC; A peptide-based reagent that combines the SEQ ID NO18 interactive domain with the SEQ ID NO11 peptide backbone.) [SAP-2, SAP backbone with library program-selected YKLKY insert]
Stabilization of the native state relative to SAP [3]: 2.1 kcal/mol | Stabilization of the native state relative to SAP-1 [3]: 0.1 kcal/mol | m1/2 value of unfolding [3]: 4.05 M urea

Binding to trypsin by ITC (in words) [2]: no detectable binding | Binding to trypsin by ITC (in words), FIG. 6 titration ([2]; peptide 2 mM, trypsin 20 μM, 20 mM cacodylate pH 7.0, 20 mM NaCl, 30° C.): No binding is evident
Sequence: CPSQPTYPGDPGPVEDLIRFYDNLQQWLNCVTAAC [SAP]
m1/2 value of unfolding [3]: 2.5 M urea | Dimerization seen in the unfolding curve (in words) ([3]; FIG. 9): no dimerization phenomenon | Native free energy (ΔG in absence of denaturant) [3]: -3.1 kcal/mol
